From patent US20090047240A1 (CBIO, published 2009)

Legend:
Test in all cases: FRET on MonoMac 6 cells, unstimulated and LPS-stimulated
CD14 = target: T1, CD14 (human, UniProt P08571 20-345)
T1 construct: whole, on cells
T1 sequence (looked up): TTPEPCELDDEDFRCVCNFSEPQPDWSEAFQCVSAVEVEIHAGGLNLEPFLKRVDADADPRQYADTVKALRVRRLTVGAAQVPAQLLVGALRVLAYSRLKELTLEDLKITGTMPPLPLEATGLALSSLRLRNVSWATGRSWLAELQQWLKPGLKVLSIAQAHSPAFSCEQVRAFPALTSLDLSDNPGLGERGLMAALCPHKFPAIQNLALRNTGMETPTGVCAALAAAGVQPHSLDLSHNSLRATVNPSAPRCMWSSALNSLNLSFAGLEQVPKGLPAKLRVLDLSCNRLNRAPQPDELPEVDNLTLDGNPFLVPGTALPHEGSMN

Hsp70 = target: T2, Hsp70 (human, UniProt P0DMV8 2-641)
T2 construct: whole, on cells

TLR4 = target: T3, TLR4 (human, UniProt O00206 24-839)
T3 construct: whole, on cells; also called Toll-like receptor 4

CXCR4 = target: T4, CXCR4 (human, UniProt P61073 1-352)
T4 construct: whole, on cells

Measured: binding result

T2 sequence (P0DMV8 2-641): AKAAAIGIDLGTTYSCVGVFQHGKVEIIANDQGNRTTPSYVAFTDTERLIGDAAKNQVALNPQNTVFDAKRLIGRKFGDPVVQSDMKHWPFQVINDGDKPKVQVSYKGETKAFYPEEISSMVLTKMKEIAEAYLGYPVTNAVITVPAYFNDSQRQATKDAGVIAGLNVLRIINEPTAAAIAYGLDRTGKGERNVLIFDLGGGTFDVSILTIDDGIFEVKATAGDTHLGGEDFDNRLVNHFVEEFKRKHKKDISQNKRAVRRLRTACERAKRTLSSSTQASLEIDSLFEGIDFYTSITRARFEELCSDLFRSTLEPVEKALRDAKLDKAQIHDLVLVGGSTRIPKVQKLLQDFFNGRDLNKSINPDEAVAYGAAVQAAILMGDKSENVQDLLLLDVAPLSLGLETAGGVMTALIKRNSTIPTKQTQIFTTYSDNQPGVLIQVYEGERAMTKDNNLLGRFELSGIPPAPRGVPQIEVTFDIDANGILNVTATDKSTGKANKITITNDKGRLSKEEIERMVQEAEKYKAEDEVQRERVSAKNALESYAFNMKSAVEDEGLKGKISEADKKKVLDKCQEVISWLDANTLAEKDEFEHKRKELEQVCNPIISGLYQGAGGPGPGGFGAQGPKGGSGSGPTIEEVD
T4 sequence (P61073 whole entry): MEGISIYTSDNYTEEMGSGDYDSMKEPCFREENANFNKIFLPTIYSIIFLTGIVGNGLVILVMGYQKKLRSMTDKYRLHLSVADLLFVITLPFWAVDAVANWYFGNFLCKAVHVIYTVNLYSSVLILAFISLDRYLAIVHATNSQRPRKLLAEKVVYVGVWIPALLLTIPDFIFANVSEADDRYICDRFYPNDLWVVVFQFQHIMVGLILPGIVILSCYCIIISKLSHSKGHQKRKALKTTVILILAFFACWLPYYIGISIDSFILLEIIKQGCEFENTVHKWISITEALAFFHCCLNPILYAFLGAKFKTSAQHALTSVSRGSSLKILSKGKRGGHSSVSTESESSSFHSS
T3 sequence (O00206 24-839): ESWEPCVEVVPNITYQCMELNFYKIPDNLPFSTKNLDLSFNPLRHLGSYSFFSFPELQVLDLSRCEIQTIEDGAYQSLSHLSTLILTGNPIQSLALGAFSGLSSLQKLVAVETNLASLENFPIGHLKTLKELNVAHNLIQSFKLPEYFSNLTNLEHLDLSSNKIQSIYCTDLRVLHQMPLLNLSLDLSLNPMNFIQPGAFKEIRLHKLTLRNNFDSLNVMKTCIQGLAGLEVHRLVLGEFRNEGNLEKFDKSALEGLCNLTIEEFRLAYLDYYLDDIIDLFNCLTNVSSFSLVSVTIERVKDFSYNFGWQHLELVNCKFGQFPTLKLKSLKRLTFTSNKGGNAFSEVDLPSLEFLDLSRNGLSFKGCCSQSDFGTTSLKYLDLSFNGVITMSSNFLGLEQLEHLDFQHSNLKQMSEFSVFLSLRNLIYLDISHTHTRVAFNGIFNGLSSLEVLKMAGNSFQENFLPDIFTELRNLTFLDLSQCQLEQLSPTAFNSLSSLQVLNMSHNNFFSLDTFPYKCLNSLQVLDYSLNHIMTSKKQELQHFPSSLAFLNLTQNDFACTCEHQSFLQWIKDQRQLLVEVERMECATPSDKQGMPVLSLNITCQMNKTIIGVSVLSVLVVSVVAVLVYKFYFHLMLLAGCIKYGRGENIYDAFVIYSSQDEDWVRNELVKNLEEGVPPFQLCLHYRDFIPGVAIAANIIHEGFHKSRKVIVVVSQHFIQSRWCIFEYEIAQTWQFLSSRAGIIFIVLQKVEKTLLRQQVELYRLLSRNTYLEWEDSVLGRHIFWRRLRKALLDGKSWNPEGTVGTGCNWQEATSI

B1: E. coli GroES (other)
chain: MNIRPLHDRVIVKRKEVETKSAGGIVLTGSAAAKSTRGEVLAVGNGRILENGEVKPLDVKVGDIVIFNDGYGVKSEKIDNEEVLIMSESDILAIVEA
notes: also called E. coli homologue of Cpn10
no binding: all assays above
